According to patent US20200165308A1 (UNIVERSITY OF MANITOBA, published 2020):
One block for each binder: values may come before it.

Legend:
[1] = target: T1, extracellular domains of UNC5h2 (CAD32251, aa: 25-374) (Mus musculus, UniProt Q8K1S3 25-374); assay: solid-phase binding
T1 construct: also called UNC5h2 full-length ectodomain; not shown: C-terminal double Strep-tag II

[2] = target: T2, Netrin-1 (NET1) from Mus musculus lacking the C-terminal domain (NP_032770, aa: 24-457) (Mus musculus, UniProt O09118 24-457); assay: solid-phase binding
[3] = target: T2, Netrin-1 (NET1) from Mus musculus …; assay: solid-phase binding, NEO1 immobilized

fold drop in affinity against wild type NET1 [1]: 50 fold
B1: NET1 with the eight loop a/b residues 348RRCRFNME355 replaced by the equivalent residues from NET4 (339DTCHFDVN346) (ligand)
chain: not shown
notes: C350 and F352 are the same in both; also called NET1/NET4 loop a/b swap

binding result [2]: binds
B2: UNC5h2 IgG1 (CAD32251, aa: 52-153) (receptor)
chain: not shown
notes: also called Ig1; Ig1 domain of UNC5h2; not shown: C-terminal double Strep-tag II

binding result [2]: no binding
B3: UNC5h2 IgG2 (CAD32251, aa: 154-245) (receptor)
chain: not shown
notes: also called Ig2; Ig2 domain of UNC5h2; not shown: C-terminal double Strep-tag II

binding result [3]: binds
B4: full-length ectodomain of NEO1 (AAH54540, aa: 41-1107) (receptor)
chain: GAAATKSGSPPQSAGASVRTFTPFYFLVEPVDTLSVRGSSVILNCSAYSEPSPNIEWKKDGTFLNLESDDRRQLLPDGSLFISNVVHSKHNKPDEGFYQCVATVDNLGTIVSRTAKLTVAGLPRFTSQPEPSSVYVGNSAILNCEVNADLVPFVRWEQNRQPLLLDDRIVKLPSGTLVISNATEGDGGLYRCIVESGGPPKFSDEAELKVLQDPEEIVDLVFLMRPSSMMKVTGQSAVLPCVVSGLPAPVVRWMKNEEVLDTESSGRLVLLAGGCLEISDVTEDDAGTYFCIADNGNKTVEAQAELTVQVPPGFLKQPANIYAHESMDIVFECEVTGKPTPTVKWVKNGDVVIPSDYFKIVKEHNLQVLGLVKSDEGFYQCIAENDVGNAQAGAQLIILEHDVAIPTLPPTSLTSATTDHLAPATTGPLPSAPRDVVASLVSTRFIKLTWRTPASDPHGDNLTYSVFYTKEGVARERVENTSQPGEMQVTIQNLMPATVYIFKVMAQNKHGSGESSAPLRVETQPEVQLPGPAPNIRAYATSPTSITVTWETPLSGNGEIQNYKLYYMEKGTDKEQDIDVSSHSYTINGLKKYTEYSFRVVAYNKHGPGVSTQDVAVRTLSDVPSAAPQNLSLEVRNSKSIVIHWQPPSSTTQNGQITGYKIRYRKASRKSDVTETLVTGTQLSQLIEGLDRGTEYNFRVAALTVNGTGPATDWLSAETFESDLDETRVPEVPSSLHVRPLVTSIVVSWTPPENQNIVVRGYAIGYGIGSPHAQTIKVDYKQRYYTIENLDPSSHYVITLKAFNNVGEGIPLYESAVTRPHTVPDPTPMMPPVGVQASILSHDTIRITWADNSLPKHQKITDSRYYTVRWKTNIPANTKYKNANATTLSYLVTGLKPNTLYEFSVMVTKGRRSSTWSMTAHGATFELVPTSPPKDVTVVSKEGKPRTIIVNWQPPSEANGKITGYIIYYSTDVNAEIHDWVIEPVVGNRLTHQIQELTLDTPYYFKIQARNSKGMGPMSEAVQFRTPKALGSAGKGSRLPDLGSDYKPPMSGSNSPHGSPTSPLDSN
notes: also called neogenin; NEO1 full-length ectodomain; not shown: C-terminal double Strep-tag II
